From patent US20230203157A1 (published 2023)

T1: mouse PD-1 (mouse, UniProt Q02242 25-288)
T1 sequence (looked up): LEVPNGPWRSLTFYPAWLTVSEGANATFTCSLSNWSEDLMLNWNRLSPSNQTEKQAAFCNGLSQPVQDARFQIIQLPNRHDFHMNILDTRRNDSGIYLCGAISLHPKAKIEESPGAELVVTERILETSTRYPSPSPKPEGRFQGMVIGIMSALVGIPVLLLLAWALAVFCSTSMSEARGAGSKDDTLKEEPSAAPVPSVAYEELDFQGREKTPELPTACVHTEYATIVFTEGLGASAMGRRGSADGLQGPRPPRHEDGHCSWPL

B1: LoSTIM 3 (bispecific antibody, mouse IgG2a, kappa)
heavy: DVALTQTPVAQPVTLGDQASISCRSSQSLVHSNGRTYLEWYLQKPGQSPQLLIYKVSNRFSGVPDRFIGSGSGSDFTLTISRVEPEDLGVYYCFQATHDPNTFGAGTKLELKGGGGSGGGGSGGGGSQVQLQQSGAELVKPGSSVKISCKASGYTFTSHFIHWIKQQPGNGLEWIGGIYPGDGDTEYNQQFNGKATLTADKSSSTAYMRLSSLTSEDSAVYFCATRVPSYWFFDFWGPGTMVTVSSGGGGAGGGGEVQVVETGGGLVQPGSSLKLSCESSGFTFSSTWMNWVRQAPGKGLEWVALVKDKYSNYEANYAESVKGRFIISRDDSKNRVYLQMNTLRDQDTATYHCTRSRGYKNWYFDFWGPGTMVTVSSAKTTAPSVYPLAPVCGDTTGSSVTLGCLVKGYFPEPVTLTWNSGSLSSGVHTFPAVLQSDLYTLSSSVTVTSSTWPSQSITCNVAHPASSTKVDKKIEPRGPTIKPCPPCKCPAPNLEGGPSVFIFPPKIKDVLMISLSPIVTCVVVDVSEDDPDVQISWFVNNVEVHTAQTQTHREDYNSTLRVVSALPIQHQDWMSGKAFACAVNNKDLPAPIERTISKPKGSVRAPQVYVLPPPEEEMTKKQVTLTCMVTDFMPEDIYVEWTNNGKTELNYKNTEPVLDSDGSYFMYSKLRVEKKNWVERNSYSCSVVHEGLHNHHTTKSFSRTPGK
light: DIQMTQSPPSLSASLGDKVTITCQASQNINNYIAWYQQKPGKAPGLLILYTSTLVSGTPSRFSGSGSGRDYSFSISNVESEDIASYYCLQYDNSPRTFGGGTKLELKRADAAPTVSIFPPSSEQLTSGGASVVCFLNNFYPKDINVKWKIDGSERQNGVLNSWTDQDSKDSTYSMSSTLTLTKDEYERHNSYTCEATHKTSTSPIVKSFNRNEC
B2: LoSTIM 4 (bispecific antibody, mouse IgG2a, kappa)
heavy: EVQVVETGGGLVQPGSSLKLSCESSGFTFSSTWMNWVRQAPGKGLEWVALVKDKYSNYEANYAESVKGRFIISRDDSKNRVYLQMNTLRDQDTATYHCTRSRGYKNWYFDFWGPGTMVTVSSAKTTAPSVYPLAPVCGDTTGSSVTLGCLVKGYFPEPVTLTWNSGSLSSGVHTFPAVLQSDLYTLSSSVTVTSSTWPSQSITCNVAHPASSTKVDKKIEPRGPTIKPCPPCKCPAPNLEGGPSVFIFPPKIKDVLMISLSPIVTCVVVDVSEDDPDVQISWFVNNVEVHTAQTQTHREDYNSTLRVVSALPIQHQDWMSGKAFACAVNNKDLPAPIERTISKPKGSVRAPQVYVLPPPEEEMTKKQVTLTCMVTDFMPEDIYVEWTNNGKTELNYKNTEPVLDSDGSYFMYSKLRVEKKNWVERNSYSCSVVHEGLHNHHTTKSFSRTPGKGGGGAGGGGDVALTQTPVAQPVTLGDQASISCRSSQSLVHSNGRTYLEWYLQKPGQSPQLLIYKVSNRFSGVPDRFIGSGSGSDFTLTISRVEPEDLGVYYCFQATHDPNTFGAGTKLELKGGGGSGGGGSGGGGSQVQLQQSGAELVKPGSSVKISCKASGYTFTSHFIHWIKQQPGNGLEWIGGIYPGDGDTEYNQQFNGKATLTADKSSSTAYMRLSSLTSEDSAVYFCATRVPSYWFFDFWGPGTMVTVSS
light: B1 light
B3: LoSTIM 7 (bispecific antibody, mouse IgG2a, kappa)
heavy: DVALTQTPVAQPVTLGDQASISCRSSQSLVHSNGRTYLEWYLQKPGQSPQLLIYKVSNRFSGVPDRFIGSGSGSDFTLTISRVEPEDLGVYYCFQATHDPNTFGAGTKLELKGGGGSGGGGSGGGGSQVQLQQSGAELVKPGSSVKISCKASGYTFTSHFIHWIKQQPGNGLEWIGGIYPGDGDTEYNQQFNGKATLTADKSSSTAYMRLSSLTSEDSAVYFCATRVPSYWFFDFWGPGTMVTVSSGGGGAGGGGDVQLVESGGGLVQPGGSRKLSCAASGFTFSSFGMHWVRQAPEKGLEWVAYISSGSNTIYYADTVKGRFTISRDNPKNTLFLQMTSLRSEDTAMYYCALTTGSWFAYWGQGTLVTVSAAKTTAPSVYPLAPVCGDTTGSSVTLGCLVKGYFPEPVTLTWNSGSLSSGVHTFPAVLQSDLYTLSSSVTVTSSTWPSQSITCNVAHPASSTKVDKKIEPRGPTIKPCPPCKCPAPNLEGGPSVFIFPPKIKDVLMISLSPIVTCVVVDVSEDDPDVQISWFVNNVEVHTAQTQTHREDYNSTLRVVSALPIQHQDWMSGKAFACAVNNKDLPAPIERTISKPKGSVRAPQVYVLPPPEEEMTKKQVTLTCMVTDFMPEDIYVEWTNNGKTELNYKNTEPVLDSDGSYFMYSKLRVEKKNWVERNSYSCSVVHEGLHNHHTTKSFSRTPGK
light: DILLTQSPAILSVRPGERVSFSCRASQSLGTSIHWYQQRTDGSPRLLIKYASESISGIPSRFSGSGSGTDFTLSINSVESEDIADYYCQQSNSWPITFGAGTKLELKRADAAPTVSIFPPSSEQLTSGGASVVCFLNNFYPKDINVKWKIDGSERQNGVLNSWTDQDSKDSTYSMSSTLTLTKDEYERHNSYTCEATHKTSTSPIVKSFNRNEC
B4: LoSTIM 8 (bispecific antibody, mouse IgG2a, kappa)
heavy: DVQLVESGGGLVQPGGSRKLSCAASGFTFSSFGMHWVRQAPEKGLEWVAYISSGSNTIYYADTVKGRFTISRDNPKNTLFLQMTSLRSEDTAMYYCALTTGSWFAYWGQGTLVTVSAAKTTAPSVYPLAPVCGDTTGSSVTLGCLVKGYFPEPVTLTWNSGSLSSGVHTFPAVLQSDLYTLSSSVTVTSSTWPSQSITCNVAHPASSTKVDKKIEPRGPTIKPCPPCKCPAPNLEGGPSVFIFPPKIKDVLMISLSPIVTCVVVDVSEDDPDVQISWFVNNVEVHTAQTQTHREDYNSTLRVVSALPIQHQDWMSGKAFACAVNNKDLPAPIERTISKPKGSVRAPQVYVLPPPEEEMTKKQVTLTCMVTDFMPEDIYVEWTNNGKTELNYKNTEPVLDSDGSYFMYSKLRVEKKNWVERNSYSCSVVHEGLHNHHTTKSFSRTPGKGGGGAGGGGDVALTQTPVAQPVTLGDQASISCRSSQSLVHSNGRTYLEWYLQKPGQSPQLLIYKVSNRFSGVPDRFIGSGSGSDFTLTISRVEPEDLGVYYCFQATHDPNTFGAGTKLELKGGGGSGGGGSGGGGSQVQLQQSGAELVKPGSSVKISCKASGYTFTSHFIHWIKQQPGNGLEWIGGIYPGDGDTEYNQQFNGKATLTADKSSSTAYMRLSSLTSEDSAVYFCATRVPSYWFFDFWGPGTMVTVSS
light: B3 light

Biological target: T1, mouse PD-1
Assay: cell-based or functional assay

Row | Binder | CD69 expression; OT-I CD8 T cells with SIINFEKL-pulsed BMDDC, 0.5 micromolar, 57 h | proliferation (CFSE dilution); OT-I CD8 T cells with SIINFEKL-pulsed BMDDC, 0.5 micromolar, 57 h | proliferation by CFSE dilution; BALB/c CD8 T cells with allogeneic C57B6 BMDDC, 0.5 micromolar, 84 h | proliferation by CFSE dilution; OT-I CD8 T cells with SIINFEKL-pulsed C57B6 BMDDC, 0.5 micromolar, 72 h
1 | B1 | 61% | 90.1% |  | 
2 | B2 | 79% | 96.1% |  | 
3 | B3 |  |  | 63.6% | 43.9%
4 | B4 |  |  | 69.1% | 78.4%
